Results: patent US20190309059A1 (SHANGHAI PHARMAEXPLORER, published 2019)

Tests used:
[1] = target: his-labeled human IL-13 (immunogen A) (human) (UniProt P35225); assay: cell-based or functional assay
[2] = target: cynomolgus IL-13 (purchased from sino biological) (cynomolgus) (UniProt Q0PW92); assay: ELISA, cynomolgus IL-13; antibody at 0.53 nM
[3] = target: cynomolgus IL-13 (purchased from sino biological) (cynomolgus) (UniProt Q0PW92); assay: ELISA, cynomolgus IL-13; antibody at 2.67 nM
[4] = target: cynomolgus IL-13 (purchased from sino biological) (cynomolgus) (UniProt Q0PW92); assay: ELISA, cynomolgus IL-13; antibody at 66.7 nM
[5] = target: cynomolgus IL-13 (purchased from sino biological) (cynomolgus) (UniProt Q0PW92); assay: ELISA, cynomolgus IL-13; antibody at 0.004 nM
[6] = target: cynomolgus IL-13 (purchased from sino biological) (cynomolgus) (UniProt Q0PW92); assay: ELISA, cynomolgus IL-13; antibody at 0.021 nM
[7] = target: his-labeled human IL-13 (immunogen A) (human) (UniProt P35225); assay: ELISA, biotin-immunogen A; antibody at 0.02 nM
[8] = target: his-labeled human IL-13 (immunogen A) (human) (UniProt P35225); assay: ELISA, biotin-immunogen A; antibody at 0.11 nM
[9] = target: his-labeled human IL-13R130Q variant (human) (UniProt P35225); assay: ELISA, IL-13R130Q variant; antibody at 0.11 nM
his-labeled human IL-13R130Q variant (human), sequence (P35225 other isoform, or with tags, fused parts or gaps mutant): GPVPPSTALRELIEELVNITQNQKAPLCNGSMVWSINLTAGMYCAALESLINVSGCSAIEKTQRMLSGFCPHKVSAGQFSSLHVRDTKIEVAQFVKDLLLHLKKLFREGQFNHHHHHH

[10] = target: his-labeled human IL-13R130Q variant (human) (UniProt P35225); assay: ELISA, IL-13R130Q variant; antibody at 2.67 nM
[11] = target: his-labeled human IL-13R130Q variant (human) (UniProt P35225); assay: ELISA, IL-13R130Q variant; antibody at 0.004 nM
[12] = target: his-labeled human IL-13R130Q variant (human) (UniProt P35225); assay: ELISA, IL-13R130Q variant; antibody at 13.33 nM
[13] = target: his-labeled human IL-13 (immunogen A) (human) (UniProt P35225); assay: FACS blocking, biotin-IL-13 on IL-13Ra2 HEK293 cells; antibody at 0.01 nM
[14] = target: his-labeled human IL-13 (immunogen A) (human) (UniProt P35225); assay: FACS blocking, biotin-IL-13 on IL-13Ra2 HEK293 cells; antibody at 0.05 nM
[15] = target: his-labeled human IL-13 (immunogen A) (human) (UniProt P35225); assay: FACS blocking, biotin-IL-13 on IL-13Ra2 HEK293 cells; antibody at 0.27 nM
[16] = target: his-labeled human IL-13 (immunogen A) (human) (UniProt P35225); assay: FACS blocking, biotin-IL-13 on IL-13Ra2 HEK293 cells; antibody at 1.33 nM
[17] = target: his-labeled human IL-13 (immunogen A) (human) (UniProt P35225); assay: FACS blocking, biotin-IL-13 on IL-13Ra2 HEK293 cells; antibody at 6.67 nM
[18] = target: his-labeled human IL-13 (immunogen A) (human) (UniProt P35225); assay: FACS blocking, biotin-IL-13 on IL-13Ra2 HEK293 cells; antibody at 0.002 nM
[19] = target: his-labeled human IL-13 (immunogen A) (human) (UniProt P35225); assay: FACS blocking, biotin-IL-13 on IL-13Ra2 HEK293 cells; antibody at 33.33 nM
[20] = target: his-labeled human IL-13 (immunogen A) (human) (UniProt P35225); assay: FACS blocking, biotin-IL-13 on IL-13Ra2 HEK293 cells; antibody at 166.67 nM
[21] = target: his-labeled human IL-13 (immunogen A) (human) (UniProt P35225); assay: FACS blocking, biotin-IL-13 on IL-13Ra1/IL-4Ra HEK293 cells; antibody at 0.01 nM
[22] = target: his-labeled human IL-13 (immunogen A) (human) (UniProt P35225); assay: FACS blocking, biotin-IL-13 on IL-13Ra1/IL-4Ra HEK293 cells; antibody at 0.05 nM
[23] = target: his-labeled human IL-13 (immunogen A) (human) (UniProt P35225); assay: FACS blocking, biotin-IL-13 on IL-13Ra1/IL-4Ra HEK293 cells; antibody at 0.27 nM
[24] = target: his-labeled human IL-13 (immunogen A) (human) (UniProt P35225); assay: FACS blocking, biotin-IL-13 on IL-13Ra1/IL-4Ra HEK293 cells; antibody at 1.33 nM
[25] = target: his-labeled human IL-13 (immunogen A) (human) (UniProt P35225); assay: FACS blocking, biotin-IL-13 on IL-13Ra1/IL-4Ra HEK293 cells; antibody at 6.67 nM
[26] = target: his-labeled human IL-13 (immunogen A) (human) (UniProt P35225); assay: FACS blocking, biotin-IL-13 on IL-13Ra1/IL-4Ra HEK293 cells; antibody at 0.002 nM
[27] = target: his-labeled human IL-13 (immunogen A) (human) (UniProt P35225); assay: FACS blocking, biotin-IL-13 on IL-13Ra1/IL-4Ra HEK293 cells; antibody at 33.33 nM
[28] = target: his-labeled human IL-13 (immunogen A) (human) (UniProt P35225); assay: FACS blocking, biotin-IL-13 on IL-13Ra1/IL-4Ra HEK293 cells; antibody at 166.67 nM

cynomolgus IL-13 (purchased from sino biological) (cynomolgus), sequence (Q0PW92 entry or part of it): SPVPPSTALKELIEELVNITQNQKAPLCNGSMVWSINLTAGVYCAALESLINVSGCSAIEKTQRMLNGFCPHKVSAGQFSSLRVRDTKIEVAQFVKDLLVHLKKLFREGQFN

B1: c35E2C3 (mouse-human chimeric IL-13 antibody) (antibody, V domains shown)
VH: EVQLQESGPGLAKPSQTLSLTCSVTGYSITSDYWNWIRKFPGNKLEYMGYISYNGNTYYNPSLKSQISITRDTSKNQLYLQLKSATTEDTATYYCARLAKWTWYFDIWGTGTTVTVSS
VL: DIQMNQSPSSLSASLGDTITITCHASQNINVWLSWYQQKPGSLPKLLIYKASDLHTGVPSRFSGSGSGTGFTLTISSLQPEDIATYYCQQGQSYPYTFGGGTKLEIK
[1]
  Periostin (pg/mL), MRCS cells + IL-13 5 ng/mL; antibody at 0.0002 nM: 7100 pg/mL
  Periostin (pg/mL), MRCS cells + IL-13 5 ng/mL; antibody at 0.001 nM: 6020 pg/mL
  Periostin (pg/mL), MRCS cells + IL-13 5 ng/mL; antibody at 0.004 nM: 4870 pg/mL
  Periostin (pg/mL), MRCS cells + IL-13 5 ng/mL; antibody at 0.021 nM: 4480 pg/mL
  Periostin (pg/mL), MRCS cells + IL-13 5 ng/mL; antibody at 0.11 nM: 4360 pg/mL
  Periostin (pg/mL), MRCS cells + IL-13 5 ng/mL; antibody at 0.53 nM: 4460 pg/mL
  Periostin (pg/mL), MRCS cells + IL-13 5 ng/mL; antibody at 2.67 nM: 2850 pg/mL
  Periostin (pg/mL), MRCS cells + IL-13 5 ng/mL; antibody at 13.3 nM: 1350 pg/mL
  TARC (pg/mL), A549 cells + IL-13 + TNFα; antibody at 0.001 nM: 3200 pg/mL
  TARC (pg/mL), A549 cells + IL-13 + TNFα; antibody at 0.004 nM: 3150 pg/mL
  TARC (pg/mL), A549 cells + IL-13 + TNFα; antibody at 0.021 nM: 3040 pg/mL
  TARC (pg/mL), A549 cells + IL-13 + TNFα; antibody at 0.11 nM: 2610 pg/mL
  TARC (pg/mL), A549 cells + IL-13 + TNFα; antibody at 0.53 nM: 2370 pg/mL
  TARC (pg/mL), A549 cells + IL-13 + TNFα; antibody at 2.67 nM: 1090 pg/mL
  TARC (pg/mL), A549 cells + IL-13 + TNFα; antibody at 13.3 nM: 227 pg/mL
  TARC (pg/mL), A549 cells + IL-13 + TNFα; antibody at 66.7 nM: 54 pg/mL
  VCAM-1 fluorescence intensity, HUVEC + IL-13 0.5 ng/mL + TNFα; antibody at 0.0002 nM: 408
  VCAM-1 fluorescence intensity, HUVEC + IL-13 0.5 ng/mL + TNFα; antibody at 0.001 nM: 402
  VCAM-1 fluorescence intensity, HUVEC + IL-13 0.5 ng/mL + TNFα; antibody at 0.004 nM: 452
  VCAM-1 fluorescence intensity, HUVEC + IL-13 0.5 ng/mL + TNFα; antibody at 0.021 nM: 408
  VCAM-1 fluorescence intensity, HUVEC + IL-13 0.5 ng/mL + TNFα; antibody at 0.11 nM: 313
  VCAM-1 fluorescence intensity, HUVEC + IL-13 0.5 ng/mL + TNFα; antibody at 0.53 nM: 299
  VCAM-1 fluorescence intensity, HUVEC + IL-13 0.5 ng/mL + TNFα; antibody at 2.67 nM: 238
  VCAM-1 fluorescence intensity, HUVEC + IL-13 0.5 ng/mL + TNFα; antibody at 13.3 nM: 165
[2]
  OD450 nm: 0.59
[3]
  OD450 nm: 1.63
[4]
  OD450 nm: 3.8
[5]
  OD450 nm: 0.061
[6]
  OD450 nm: 0.136
[7]
  OD450 nm: 0.18
[8]
  OD450 nm: 0.59
[9]
  OD450 nm: 0.97
[10]
  OD450 nm: 3.1
[11]
  OD450 nm: 0.13
[12]
  OD450 nm: 3.3
[13]
  mean fluorescence intensity: 98.1
[14]
  mean fluorescence intensity: 90
[15]
  mean fluorescence intensity: 63.8
[16]
  mean fluorescence intensity: 29
[17]
  mean fluorescence intensity: 22.2
[18]
  mean fluorescence intensity: 99.1
[19]
  mean fluorescence intensity: 20.3
[20]
  mean fluorescence intensity: 19.3
[21]
  mean fluorescence intensity: 96.8
[22]
  mean fluorescence intensity: 96.7
[23]
  mean fluorescence intensity: 81.5
[24]
  mean fluorescence intensity: 33.1
[25]
  mean fluorescence intensity: 19.5
[26]
  mean fluorescence intensity: 102
[27]
  mean fluorescence intensity: 19.6
[28]
  mean fluorescence intensity: 18.7
